Laboratory results from paper PMC8679000, “Biochemical Characterizations of Human TMPK Mutations Identified in Patients with Severe Microcephaly: Single Amino Acid Substitutions Impair Dimerization and Abolish Their Catalytic Activity” (ACS Omega, 2021).

B1: wild-type human deoxythymidylate kinase (TMPK) [human] / itself (parent)
chain: MAARRGALIVLEGVDRAGKSTQSRKLVEALCAAGHRAELLRFPERSTEIGKLLSSYLQKKSDVEDHSVHLLFSANRWEQVPLIKEKLSQGVTLVVDRYAFSGVAFTGAKENFSLDWCKQPDVGLPKPDLVLFLQLQLADAAKRGAFGHERYENGAFQERALRCFHQLMKDTTLNWKMVDASKSIEAVHEDIRVLSEDAIRTATEKPLGELWK

Variants of: B1
Test: size-exclusion chromatography, protein concentration of fractions
Conditions: with itself, 200 µg enzyme loaded, 0.4 mL fractions
[1] = fraction F18 (monomer fraction)
[2] = fraction F19 (monomer fraction)
[3] = fraction F20 (monomer fraction)

Row | screen value (fraction F15 (dimer fraction)) [mg/mL] | screen value (fraction F16 (dimer fraction)) [mg/mL] | screen value [1] [mg/mL] | screen value [2] [mg/mL] | screen value [3] [mg/mL] | Variant
1 | 0.002 | 0.009 | 0.024 | 0.016 | 0.013 | MAARRGALIVLEGVDRAGKSTQSRKLVEALCAAGHRAELLRFPERSTEIGKLLSSYLQKKSDVEDHSVHLLFSANRWEQVLLIKEKLSQGVTLVVDRYAFSGVAFTGAKENFSLDWCKQPDVGLPKPDLVLFLQLQLADAAKRGAFGHERYENGAFQERALRCFHQLMKDTTLNWKMVDASKSIEAVHEDIRVLSEDAIRTATEKPLGELWK [chain 1 P81L]
2 | 0.006 | 0.01 | 0.019 | 0.015 | 0.012 | MAARRGALIVLEGVDRAGKSTQSRKLVEALCAAGHRAELLRFPERSTEIGKLLSSYLQKKSDVEDHSVHLLFSANRWEQVPLIKEKLSQGVTLVVDRYTFSGVAFTGAKENFSLDWCKQPDVGLPKPDLVLFLQLQLADAAKRGAFGHERYENGAFQERALRCFHQLMKDTTLNWKMVDASKSIEAVHEDIRVLSEDAIRTATEKPLGELWK [chain 1 A99T]
3 | 0.004 | 0.005 | 0.016 | 0.019 | 0.012 | MAARRGALIVLEGVDRAGKSTQSRKLVEALCAAGHRAELLRFPERSTEIGKLLSSYLQKKSDVEDHSVHLLFSANRWEQVPLIKEKLSQGVTLVVDRYAFSGVAFTGAKENFSLDWCKQPDVGLPKPNLVLFLQLQLADAAKRGAFGHERYENGAFQERALRCFHQLMKDTTLNWKMVDASKSIEAVHEDIRVLSEDAIRTATEKPLGELWK [chain 1 D128N]
